Laboratory results taken from patent publication US20080176263.

Key:
[1] = tested on: TNO211 peptide (DABCYL-GABA-Pro-Gln-Gly-Leu-Glu(EDANS)-Ala-Lys-NH2)
[2] = tested on: Anaspec, Inc.'s FRET peptide XV (QXL520-y-Abu-Pro-Gln-Gly-Leu-Dab(5-FAM)-Ala-Lys-NH)
[3] = tested on: T1, Peptide #15 (Biotin-aAbu-Pro-Gln-Gly-Leu-Lys(5FAM)-Ala-Lys-NH2)
T1 sequence: PQGLKAK

Sequence of MMP-9 (chain, as listed by the source): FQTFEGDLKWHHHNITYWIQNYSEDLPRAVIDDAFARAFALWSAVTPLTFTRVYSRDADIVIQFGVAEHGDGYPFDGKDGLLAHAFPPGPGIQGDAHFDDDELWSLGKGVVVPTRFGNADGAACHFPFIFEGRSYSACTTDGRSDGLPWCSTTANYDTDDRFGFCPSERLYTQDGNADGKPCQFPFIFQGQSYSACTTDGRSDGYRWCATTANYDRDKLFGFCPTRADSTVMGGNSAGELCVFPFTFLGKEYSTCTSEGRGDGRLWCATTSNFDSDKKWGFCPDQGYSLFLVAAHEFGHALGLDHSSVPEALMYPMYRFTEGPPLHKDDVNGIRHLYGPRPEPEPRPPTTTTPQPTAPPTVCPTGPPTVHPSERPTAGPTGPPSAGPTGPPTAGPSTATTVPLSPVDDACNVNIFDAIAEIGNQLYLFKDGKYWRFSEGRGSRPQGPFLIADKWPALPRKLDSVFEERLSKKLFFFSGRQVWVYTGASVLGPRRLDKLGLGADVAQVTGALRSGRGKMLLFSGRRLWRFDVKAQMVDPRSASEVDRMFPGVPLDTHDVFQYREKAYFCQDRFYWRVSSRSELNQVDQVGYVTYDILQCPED
Sequence of Recombinant active pure MMP-9 from Calbiochem (Cat# PF024; 83 kDa form) (chain, as listed by the source): as above

MMP-9
protease activity (fluorescence from cleavage of substrate TNO211), relative to pronase [1]: 28±3% | substrate specificity in the fluorogenic cleavage assay [1]: The substrate exhibited greater specificity for MMP-9 within the initial 30 minutes of the assay

clostridial collagenase
protease activity (fluorescence from cleavage of substrate TNO211), relative to pronase [1]: 2±1%

trypsin
cleavage of the dye-labelled immobilized substrate (color generation) (RH substrate): none of the enzyme preparations were successful in cleaving the RH substrate

dispase
cleavage of the dye-labelled immobilized substrate (color generation) (RH substrate): none of the enzyme preparations were successful in cleaving the RH substrate

Recombinant active pure MMP-9 from Calbiochem (Cat# PF024; 83 kDa form)
time to a visible fluorescent signal from cleavage of the FRET peptide [2]: capable of generating a signal within 10 minutes for pure MMP-9 activity | visually detectable fluorescent signal in MMP-9 spiked fetal bovine serum [2]: the spiked FBS generated as slightly detectable signal by 10 min with the 5-FAM-based peptide and an easily detectable signal by 30 min

pronase
fluorescence left after streptavidin agarose removal of uncleaved biotinylated peptide [3]: there was enough of a difference between the negative control and the other samples to stop at this point | cleavage of the dye-labelled immobilized substrate (color generation) (RH substrate): none of the enzyme preparations were successful in cleaving the RH substrate | visible color from cleavage of the dye-labelled immobilized substrate (Substrate AA): AA substrate reacted with pronase and proteinase K did produce a visible color within 2.5 h at 37 °C Pronase generated the most noticeable color change | time to completion of the cleavage reaction at 1 ug/ml protease [1]: the pronase reaction reached completion within 13 minutes | visual detection limit of protease by fluorescence of cleaved substrate [1]: 125 ng pronase was detected within 10 minutes

elastase
cleavage of the dye-labelled immobilized substrate (color generation) (RH substrate): none of the enzyme preparations were successful in cleaving the RH substrate
